According to patent US20200062828A1 (PANASONIC INTELLECTUAL PROPERTY MANAGEMENT, published 2020):

T1: noro antigen (recombinant of the p-domain protein of the GII/4 norovirus (NSW-2012)) (GII/4 norovirus (NSW-2012), UniProt P54635 1-539)
T1 construct: Viral capsid protein antigen; also called antigen of the norovirus; recombinant p-domain protein
T1 chain: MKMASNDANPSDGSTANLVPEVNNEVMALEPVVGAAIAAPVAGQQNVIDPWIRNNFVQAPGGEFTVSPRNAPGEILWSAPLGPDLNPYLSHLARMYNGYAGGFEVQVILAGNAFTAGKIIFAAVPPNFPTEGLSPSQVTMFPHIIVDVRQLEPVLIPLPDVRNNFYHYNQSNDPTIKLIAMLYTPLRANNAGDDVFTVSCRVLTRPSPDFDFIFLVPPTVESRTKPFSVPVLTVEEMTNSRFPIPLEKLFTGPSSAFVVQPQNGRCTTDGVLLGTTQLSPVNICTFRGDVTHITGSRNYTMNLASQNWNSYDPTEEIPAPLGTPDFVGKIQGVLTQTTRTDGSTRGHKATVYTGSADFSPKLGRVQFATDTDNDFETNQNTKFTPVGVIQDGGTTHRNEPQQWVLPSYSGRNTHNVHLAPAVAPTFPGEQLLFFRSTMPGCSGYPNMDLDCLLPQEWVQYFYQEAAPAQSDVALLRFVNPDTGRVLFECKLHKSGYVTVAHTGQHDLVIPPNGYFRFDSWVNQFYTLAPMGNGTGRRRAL

T2: VLP noro antigen derived from the norovirus GII/4, composed by associating 90 dimers of VP1 each including … (norovirus GII/4, UniProt P54635 1-539)
T2 construct: Virus-like particle; also called solid phase VLP
T2 chain: T1 chain

B1: VHH antibody including the amino acid sequence represented by SEQ ID NO: 41 (VHH)
VHH: EVQLVESGGGLVQAGGSLRLSCAVSGRTSSRYVMGWVRQAPGKEREFLAAISWSAGYTFYRDSVKGRFTISRDNAKNTVYLQMNSLKPEDTAVYYCNADENGLGRKRGFGSWGQGTQVTVSS
notes: also called anti-noro antibody; not shown: C-terminal 3xFlag tag and His tag from the modified pET22b(+) vector
B2: dimer antibody having two of the structural domains each having the amino acid sequence represented by SEQ ID NO: 38 (SEQ ID NO: 97) (VHH)
chain: QVQLVESGGGVVQTGGSLRLSCAASGSTFSIGAMGWYRQAPGKQRELVATVNRASRTIYADSVRGRFTISRDNAKNLVYLQMNNLKPEDTAVYYCNVIATSASGRGVTSTSWGQGSQVTVSSGGGGSGGGASGGGGSQVQLVESGGGVVQTGGSLRLSCAASGSTFSIGAMGWYRQAPGKQRELVATVNRASRTIYADSVRGRFTISRDNAKNLVYLQMNNLKPEDTAVYYCNVIATSASGRGVTSTSWGQGSQVTVSSEPKTPKPQSASAA
notes: also called Divalent 97
B3: VHH antibody including the amino acid sequence represented by SEQ ID NO: 38 (VHH)
VHH: QVQLVESGGGVVQTGGSLRLSCAASGSTFSIGAMGWYRQAPGKQRELVATVNRASRTIYADSVRGRFTISRDNAKNLVYLQMNNLKPEDTAVYYCNVIATSASGRGVTSTSWGQGSQVTVSS
notes: Alpaca VHH expressed in E. coli; also called monomer antibody; not shown: C-terminal 3xFlag tag and His tag from the modified pET22b(+) vector
B4: VHH antibody including the amino acid sequence represented by SEQ ID NO: 42 (VHH)
VHH: ELQLVESGGGAVHTGGSLRLSCAVSGRTDIRYAMGWFRQAPGREREFVAAISWNGDDTFYADSVKGRFTISRDNAKNAVSLQMDSLRPEDTAVYYCNARNSYAAFARAYWGQGTQVTVSS
notes: as for B1
B5: dimer antibody (SEQ ID NO: 99) in which the structure domain of SEQ ID NO: 39 and the structure domain of SEQ ID NO: 38 are connected from N to C via a linker (VHH)
chain: QLQLVESGGGLVQAGGSLRLSCVASGFPFASSAMAWFRQAPGKEREFVASISYRGITTYYAQPVKGRFTMSRDNAKNTVYLQMNSLKPEDTAVYYCYAKSIWGNAYWGQGTQVTVSPGGGGSGGGASGGGGSQVQLVESGGGVVQTGGSLRLSCAASGSTFSIGAMGWYRQAPGKQRELVATVNRASRTIYADSVRGRFTISRDNAKNLVYLQMNNLKPEDTAVYYCNVIATSASGRGVTSTSWGQGSQVTVSSEPKTPKPQSASAA
notes: Single-chain tandem heterodimer of two VHH domains (39 then 38); also called Divalent 99
B6: VHH antibody including the amino acid sequence represented by SEQ ID NO: 39 (VHH)
VHH: QLQLVESGGGLVQAGGSLRLSCVASGFPFASSAMAWFRQAPGKEREFVASISYRGITTYYAQPVKGRFTMSRDNAKNTVYLQMNSLKPEDTAVYYCYAKSIWGNAYWGQGTQVTVSP
notes: also called Monovalent 65; not shown: C-terminal 3xFlag tag and His tag from the modified pET22b(+) vector
B7: dimer antibody (SEQ ID NO: 98) in which the structure domain of SEQ ID NO: 38 and the structure domain of SEQ ID NO: 39 are connected from N to C via a linker (VHH)
chain: QVQLVESGGGVVQTGGSLRLSCAASGSTFSIGAMGWYRQAPGKQRELVATVNRASRTIYADSVRGRFTISRDNAKNLVYLQMNNLKPEDTAVYYCNVIATSASGRGVTSTSWGQGSQVTVSSGGGGSGGGASGGGGSQLQLVESGGGLVQAGGSLRLSCVASGFPFASSAMAWFRQAPGKEREFVASISYRGITTYYAQPVKGRFTMSRDNAKNTVYLQMNSLKPEDTAVYYCYAKSIWGNAYWGQGTQVTVSPEPKTPKPQSASAA
notes: Single-chain tandem heterodimer of two VHH domains (38 then 39); also called Divalent 98
B8: VHH antibody including the amino acid sequence represented by SEQ ID NO: 43 (VHH)
VHH: QLQLVESGGGLVQPGGSLRLSCAASGFTLDYYAIGWFRQAPGNEREFVAAISWNGGSTYYADSVKGRFTISRDNAKETVYLQMNSLKPEDTGVYYCNYRPQFGLGYNYWGQGTQVTVSS
notes: as for B1
B9: VHH antibody including the amino acid sequence represented by SEQ ID NO: 40 (VHH)
VHH: QLQLVEPGGGVVQPGGSLRLSCLASGSDFSLGAMGWYRQAPGKQRELVAIINRASWTRYADSVKGRFTISRDNSKNLVFLQMNNLKPDDTAVYYCNAIATSASGRGVTSTSWGQGSQVTVSS
notes: not shown: C-terminal 3xFlag tag and His tag from the modified pET22b(+) vector

Columns and labels:
[1] = molecular target: T1, noro antigen (recombinant of the …); assay: SPR (T200), VHH immobilized, noro antigen as analyte added serially
[2] = molecular target: T1, noro antigen (recombinant of the …); assay: SPR (T200, CM5), noro antigen immobilized, VHH as analyte, separate concentrations
[3] = molecular target: T2, VLP noro antigen derived from the …; assay: SPR (T200, CM3), VLP noro antigen immobilized, antibody as analyte
[4] = molecular target: T1, noro antigen (recombinant of the …); assay: SPR (T200, CM5), noro antigen immobilized, VHH as analyte added serially

Row | Binder | Kd [1] [nM] | Kd [2] [nM] | Kd [3] [nM] | koff [3] [s⁻¹] | kon [3] [M⁻¹ s⁻¹] | Kd [4] [nM]
1 | B1 | 4.98 | 81.6 | – | – | – | –
2 | B2 | – | – | 0.13 | 0.000302 | 2.32e+06 | –
3 | B3 | 4.15 | – | 149 | 0.0214 | 144000 | 1.15
4 | B4 | 13.1 | 63.8 | – | – | – | –
5 | B5 | – | – | 0.00947 | 0.000356 | 3.75e+07 | –
6 | B6 | 15.9 | – | 54.8 | – | – | 15.8
7 | B7 | – | – | 0.485 | 0.00198 | 4.08e+06 | –
8 | B8 | 10.3 | 5.45 | – | – | – | –
9 | B9 | 9.57 | – | – | – | – | 9.5
